Measured values from the supplement of paper PMC7877785.
± gives the uncertainty stated by the source.

Test: self-splicing fitness, log relative to wild type (ln ratio); higher = more splicing; Tetrahymena group I intron in knt gene, E. coli kanamycin selection, DiMSum; sequences stand for … in CUCUCU…GGAGGGAAAAGUUAUCAGGCAUGCACCUGGUAGCUAGUCUUUAAACCAAUAGAUUGCAUCGGUUUAAAAGGCAAGACCGUCAAAUUGCGGGAAAGGGGUCAACAGCCGUUCAGUACCAAGUCUCAGGGGAAACUUUGAGAUGGCCUUGCAAAGGGUAUGGUAAUAAGCUGACGGACAUGGUCCUAACCACGCAGCCAAGUCCUAAGUCAACAGAUCUUCUGUUGAUAUGGAUGCAGUUCACAGACUAAAUGUCGGUCGGGGAAGAUGUAUUCUUCUCAUAAGAUAUAGUCGGACCUCUCCUUAAUGGGAGCUAGCGGAUGAAGUGAUGCAACACUGGAGCCGCUGGGAACUAAUUUGUAUGCGAAAGUAUAUUGAUUAGUUUUGGAGUACUCGUGGUCG
How it was run: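 Colonies from six replicate transformations of E. coli BL21(DE3) were pooled and amplicon-sequenced on an Illumina HiSeq 2500. The library placed an intron with all eight P1ex-region nucleotides randomised inside the knt kanamycin-resistance gene on pET-22b(+), and cells grew overnight at 37°C or 30°C on LB agar with or without 25 μg/mL kanamycin (plus 100 μg/mL carbenicillin, 50 μM IPTG, 0.2% rhamnose). Fitness is the DiMSum error-weighted combination of wild-type-normalised replicate fold changes, kanamycin versus none.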

Sequence	self-splicing fitness (ln) (30 °C)	self-splicing fitness (ln) (37 °C)
AAAAAGCAAUAUUACGAGAC	-3.02 ± 0.19	-2.47 ± 0.24
AAAAAGCAAUAUUACGAGGU	-4.25 ± 0.29	-3.5 ± 0.23
AAAAAGCAAUAUUACGAUAA	-1.03 ± 0.074	-1.1 ± 0.093
AAAAAGCAAUAUUACGCGGU	-2.38 ± 0.13	-0.538 ± 0.11
AAAAAGCAAUAUUACGCUGA	-4.19 ± 0.34	-1.7 ± 0.17
AAAAAGCAAUAUUACGCUGC	-3.34 ± 0.4	
AAAAAGCAAUAUUACGGAAG	-2.88 ± 0.16	-1.38 ± 0.14
AAAAAGCAAUAUUACGGCAC	-0.499 ± 0.076	-0.593 ± 0.1
AAAAAGCAAUAUUACGGCCG	-0.279 ± 0.092	0.159 ± 0.13
AAAAAGCAAUAUUACGGCUA	-0.166 ± 0.089	0.116 ± 0.11
AAAAAGCAAUAUUACGGGGC	-3.33 ± 0.16	-2.43 ± 0.18
AAAAAGCAAUAUUACGGGUC	-3.39 ± 0.16	-2.7 ± 0.26
AAAAAGCAAUAUUACGGUAU	-2.2 ± 0.08	-0.966 ± 0.08
AAAAAGCAAUAUUACGGUCU	-0.167 ± 0.057	-0.0164 ± 0.073
AAAAAGCAAUAUUACGGUUU	-0.478 ± 0.05	-0.225 ± 0.064
AAAAAGCAAUAUUACGUCAU	-2.2 ± 0.08	-1.14 ± 0.092
AAAAAGCAAUAUUACGUCCG	-1.05 ± 0.11	-0.195 ± 0.13
AAACAGCAAUAUUACGAAAU	-2.72 ± 0.13	-1.48 ± 0.13
AAACAGCAAUAUUACGAACU	-0.252 ± 0.065	-0.265 ± 0.077
AAACAGCAAUAUUACGAAGU	-3.41 ± 0.2	-2.21 ± 0.17
AAACAGCAAUAUUACGAAUA	-2.67 ± 0.14	-1.1 ± 0.084
AAACAGCAAUAUUACGACAG	-1.5 ± 0.082	-1.25 ± 0.1
AAACAGCAAUAUUACGACCU	-0.0846 ± 0.062	-0.604 ± 0.076
AAACAGCAAUAUUACGAUAU	-1.82 ± 0.08	-0.63 ± 0.097
AAACAGCAAUAUUACGCAAU	-2.97 ± 0.081	-1.4 ± 0.076

Sequence	self-splicing fitness (ln) (30 °C)	self-splicing fitness (ln) (37 °C)
AAACAGCAAUAUUACGGACA	-1.54 ± 0.092	-1.1 ± 0.096
AAACAGCAAUAUUACGGAGC	-3.7 ± 0.28	-2.75 ± 0.22
AAACAGCAAUAUUACGGCGA	-0.923 ± 0.074	-0.737 ± 0.085
AAACAGCAAUAUUACGGCUG	-3.47 ± 0.25	-2.07 ± 0.23
AAACAGCAAUAUUACGGGUA	-2.58 ± 0.093	-1.31 ± 0.072
AAACAGCAAUAUUACGUAAU	-1.79 ± 0.051	-0.491 ± 0.064
AAACAGCAAUAUUACGUACC	-1.52 ± 0.11	-0.543 ± 0.12
AAACAGCAAUAUUACGUACU	-0.273 ± 0.06	-0.159 ± 0.073
AAACAGCAAUAUUACGUGGC	-3.05 ± 0.2	-2.35 ± 0.14
AAAGAGCAAUAUUACGACCA	-1.98 ± 0.18	
AAAGAGCAAUAUUACGAGCG	-2.08 ± 0.21	-2.17 ± 0.24
AAAGAGCAAUAUUACGAGGA	-2.26 ± 0.31	-2.6 ± 0.27
AAAGAGCAAUAUUACGAGUA	-3.87 ± 0.46	-2.58 ± 0.28
AAAGAGCAAUAUUACGAGUU	-3 ± 0.17	-1.92 ± 0.2
AAAGAGCAAUAUUACGAUAC		-2.18 ± 0.41
AAAGAGCAAUAUUACGCCAC	-3.45 ± 0.49	-2.83 ± 0.47
AAAGAGCAAUAUUACGCGAA	-2.83 ± 0.2	-1.46 ± 0.24
AAAGAGCAAUAUUACGCGGG	-4.16 ± 0.28	-3.54 ± 0.33
AAAGAGCAAUAUUACGCUCG	-2.17 ± 0.12	-0.963 ± 0.12
AAAGAGCAAUAUUACGGCUU	-1.05 ± 0.11	-0.397 ± 0.14
AAAGAGCAAUAUUACGGUAU	-3.02 ± 0.17	-2.28 ± 0.15
AAAGAGCAAUAUUACGUAAG	-3.48 ± 0.18	-2.57 ± 0.22
AAAGAGCAAUAUUACGUACC	-3.04 ± 0.19	-2.03 ± 0.28
AAAGAGCAAUAUUACGUCUU	-2.22 ± 0.091	-1.41 ± 0.1
AAAGAGCAAUAUUACGUUUG	-2.74 ± 0.21	-1.77 ± 0.22

Sequence	self-splicing fitness (ln) (30 °C)	self-splicing fitness (ln) (37 °C)
AAAUAGCAAUAUUACGAAUA	-1.7 ± 0.16	-1.18 ± 0.15
AAAUAGCAAUAUUACGAAUU	-1.65 ± 0.1	-0.368 ± 0.12
AAAUAGCAAUAUUACGACGG	-0.995 ± 0.1	-0.783 ± 0.16
AAAUAGCAAUAUUACGAGUC	-3.89 ± 0.33	-2.2 ± 0.36
AAAUAGCAAUAUUACGAUUG	-2.16 ± 0.15	-1.31 ± 0.18
AAAUAGCAAUAUUACGCACG	-1.59 ± 0.13	-0.271 ± 0.12
AAAUAGCAAUAUUACGCAGG	-1.68 ± 0.12	-1.65 ± 0.11
AAAUAGCAAUAUUACGCAUC	-3.65 ± 0.47	-0.111 ± 0.22
AAAUAGCAAUAUUACGCCGA	-2.41 ± 0.19	-0.837 ± 0.17
AAAUAGCAAUAUUACGCGGG	-3.02 ± 0.19	-1.23 ± 0.12
AAAUAGCAAUAUUACGGAGA	-1.86 ± 0.23	-2.11 ± 0.3
AAAUAGCAAUAUUACGGAUC	-1.18 ± 0.11	-0.569 ± 0.15
AAAUAGCAAUAUUACGGAUG	-2.5 ± 0.16	-0.984 ± 0.12
AAAUAGCAAUAUUACGGCAA	-0.542 ± 0.071	0.146 ± 0.075
AAAUAGCAAUAUUACGGCCA	-0.522 ± 0.15	-0.523 ± 0.18
AAAUAGCAAUAUUACGGGAU	-2.7 ± 0.099	-1.03 ± 0.11
AAAUAGCAAUAUUACGGGGA	-3.71 ± 0.25	-2.86 ± 0.19
AAAUAGCAAUAUUACGGGGC	-3.72 ± 0.32	-2.34 ± 0.29
AAAUAGCAAUAUUACGGGUG	-1.49 ± 0.11	-1.65 ± 0.14
AAAUAGCAAUAUUACGGUGA	-1.69 ± 0.13	-0.521 ± 0.11
AAAUAGCAAUAUUACGUAGU	-3.11 ± 0.099	-1.79 ± 0.095
AAAUAGCAAUAUUACGUAUA	-1.63 ± 0.12	-0.558 ± 0.12
AAAUAGCAAUAUUACGUGGC	-4.1 ± 0.28	-1.43 ± 0.2
AAAUAGCAAUAUUACGUUUG	-2.04 ± 0.1	-1.49 ± 0.11
AACAAGCAAUAUUACGAAUA	-1.97 ± 0.1	-1.24 ± 0.11
